Values of other authors, collected in article PMC13371949 (Journal of peptide science : an official publication of the …, 2025).

Legend:
[1] = previous work

In the case of glucagon [glucagon control], the isoelectric point is given as “near neutral”, the “solubility at pH 7” value (pH 7) is given as “limited solubility” and the “time to fibril formation in solution” value [1] is given as ~ 11 hours.
